Data as given in PMC4022893.

Assays:
[1] = target: FSHR of the PathHunter FSHR β-arrestin assay cells (UniProt P23945); test: split reporter (BiFC, NanoBiT); PathHunter FSHR β-arrestin recruitment assay (DiscoveRx 93-0517C2) in CHO cells; cells stimulated with FSH, Compound 5, both, or the βT60E mutant; recruited β-arrestin normalized to 100% for the maximum response of FSH
[2] = 125I-FSH binding to CHO-hFSHR membranes ± Compound 5; details: glycan lost; control: glycosylated FSH (about 3-fold more binding with Compound 5)

Sequence of β-arrestin of the PathHunter FSHR β-arrestin assay cells (P32121 whole entry): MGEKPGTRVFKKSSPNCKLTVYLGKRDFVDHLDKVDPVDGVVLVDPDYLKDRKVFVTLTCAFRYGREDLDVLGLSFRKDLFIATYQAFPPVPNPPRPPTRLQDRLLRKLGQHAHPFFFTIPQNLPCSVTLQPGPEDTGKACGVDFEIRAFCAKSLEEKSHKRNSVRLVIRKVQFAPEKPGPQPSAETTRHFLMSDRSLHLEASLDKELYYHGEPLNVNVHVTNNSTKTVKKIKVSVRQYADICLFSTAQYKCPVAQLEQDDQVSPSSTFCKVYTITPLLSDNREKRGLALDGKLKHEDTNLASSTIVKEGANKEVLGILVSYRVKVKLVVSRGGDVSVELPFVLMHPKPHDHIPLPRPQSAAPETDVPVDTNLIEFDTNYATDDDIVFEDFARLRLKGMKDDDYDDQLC
Sequence of FSHR of the PathHunter FSHR β-arrestin assay cells (P23945 18-695): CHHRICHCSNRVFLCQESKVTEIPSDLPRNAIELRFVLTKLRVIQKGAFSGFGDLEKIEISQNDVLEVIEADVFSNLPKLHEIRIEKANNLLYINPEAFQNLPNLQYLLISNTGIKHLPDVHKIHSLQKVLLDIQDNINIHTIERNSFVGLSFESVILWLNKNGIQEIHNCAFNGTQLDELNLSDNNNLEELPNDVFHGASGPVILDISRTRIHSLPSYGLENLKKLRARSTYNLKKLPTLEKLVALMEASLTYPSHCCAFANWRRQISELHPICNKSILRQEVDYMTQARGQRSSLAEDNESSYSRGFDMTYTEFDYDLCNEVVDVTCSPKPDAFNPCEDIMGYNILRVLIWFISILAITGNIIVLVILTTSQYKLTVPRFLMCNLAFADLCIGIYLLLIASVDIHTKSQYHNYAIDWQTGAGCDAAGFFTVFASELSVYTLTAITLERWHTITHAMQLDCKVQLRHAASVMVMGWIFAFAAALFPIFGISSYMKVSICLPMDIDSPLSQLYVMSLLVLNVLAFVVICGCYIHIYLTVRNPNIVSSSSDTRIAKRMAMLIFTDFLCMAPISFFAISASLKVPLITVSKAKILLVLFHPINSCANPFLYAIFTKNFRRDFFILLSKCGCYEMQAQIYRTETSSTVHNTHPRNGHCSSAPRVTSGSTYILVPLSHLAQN
Sequence of FSH α-subunit: αN52D (chain, as listed by the source N52D): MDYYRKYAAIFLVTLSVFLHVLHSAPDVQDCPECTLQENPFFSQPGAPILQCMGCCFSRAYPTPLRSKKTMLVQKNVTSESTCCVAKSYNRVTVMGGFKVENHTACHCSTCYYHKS

| Substance | β-arrestin recruited with Compound 5 plus FSH at EC100, percent of the maximum with FSH alone [1] [%] | β-arrestin recruited with FSH plus a high concentration of Compound 5, percent of the maximum with FSH alone [1] [%] | other: Compound 5 enhancement of FSHR binding [2] |
| --- | --- | --- | --- |
| β-arrestin of the PathHunter FSHR β-arrestin assay cells (from UniProt P32121 1-409) (natural protein) | 280 | 280 | – |
| FSH α-subunit: αN52D | – | – | decreases |
